Measurements taken from patent US10251952B2, “Humanized anti-tau(pS422) antibody brain shuttles and use thereof” (Hoffmann-La Roche Inc., priority 2014, dated 2019).
Values joined by “and” are separate entries in the source; they are usually repeats but may differ in a detail not shown here. Equal entries are not always repeated.

target: human tau(pS422) (Homo sapiens, UniProt P10636, S739X); experiment: BIAcore kinetic screening and kinetic rates of humanized VH/VL combinations; format: binding; conditions: 25 °C; VH14 or VH20 with VL variants
Protocol: In the following Table characteristics of the different humanized variants of the rabbit light chain variable domain in combination with the humanized heavy chain variable domains VH14 and VH20, respectively, are shown. Binding partner was human tau(pS422).
Kinetic screening was performed according to Schraeml et al. (Schraeml, M. and M. Biehl, Methods Mol. Biol. 901 (2012) 171-181) on a BIAcore 4000 instrument, mounted with a BIAcore CM5 sensor. The BIAcore 4000 instrument was under the control of the software version V1.1. A BIAcore CM5 series S chip was mounted into the instrument and was hydrodynamically addressed and preconditioned according to the manufacturer's instructions. The instrument buffer was HBS-EP buffer (10 mM HEPES (pH 7.4), 150 mM NaCl, 1 mM EDTA, 0.05% (w/v) P20). An antibody capture system was prepared on the sensor surface. A polyclonal goat anti-human antibody with human IgG-Fc specificity (Jackson Lab.) was immobilized at 30 μg/ml in 10 mM sodium acetate buffer (pH 5) to spots 1, 2, 4 and 5 in the instrument's flow cells 1, 2, 3 and 4 at 10,000 RU using NHS/EDC chemistry. In each flow cell the antibodies were captured on spot 1 and spot 5. Spot 2 and spot 4 were used as reference spots. The sensor was deactivated with a 1 M ethanolamine solution. Humanized antibody derivatives were applied at concentrations between 44 nM and 70 nM in instrument buffer supplemented with 1 mg/ml CMD (carboxymethyldextrane). The antibodies were injected at a flow rate of 30 μl/min for 2 minutes. The capture level (CL) of the surface-presented antibodies was measured in rel. response units (RU). The analytes in solution, phosphorylated human tau protein, non-phosphorylated human tau protein and the phosphorylated human tau mutant protein T422S were injected at 300 nM for 3 minutes at a flow rate of 30 μl/minute. The dissociation was monitored for 5 minutes. The capture system was regenerated by a 1 minute injection of 10 mM glycine buffer, pH 1.7 at 30 μL/minute over all flow cells. Two report points, the recorded signal shortly before the end of the analyte injection, denoted as binding late (BL) and the recorded signal shortly before the end of the dissociation time, stability late (SL), were used to characterize the kinetic screening performance. Furthermore, the dissociation rate constant kd (1/s) was calculated according to a Langmuir model and the antibody/antigen complex half-life was calculated in minutes according to the formula ln(2)/(60*kd). The molar ratio (MR) was calculated according to the formula MR=(Binding Late (RU))/(Capture level (RU))*(MW(antibody)/(MW(antigen)). In case the sensor was configured with a suitable amount of antibody ligand capture level, each antibody should be able to functionally bind at least to one analyte in solution, which is represented by a molar ratio of MR=1.0. Then, the molar ratio is also an indicator for the valence mode of analyte binding. The maximum valence can be MR=2 for an antibody binding two analytes, one with each Fab valence.
In another embodiment, kinetic rates were determined at 25° C. and 37° C. using the same experimental setup, but using multiple concentration series of each analyte in solution at 0 nM (buffer), 1.2 nM, 3.7 nM, 11.1 nM, 33.3 nM, 100 nM and 300 nM. From the concentration-dependent binding behavior the kinetic data was calculated using the BIAcore evaluation software according to the manufacturer's instructions and a Langmuir 1.1 model with RMAX global.

Molecule	kd	t/2 diss
VH14 with VL17: anti-human tau(pS422) antibody; VH SEQ ID NO: 50, VL SEQ ID NO: 37 (antibody, V domains shown, humanized sequence) VH: QQLVESGGGLVQPGGSLRLSCAASGFSLSSNAINWVRQAPGKGLEWVGYIAVSGNTYYASWAKGRFTISRDNSKNTLYLQMNSLRAEDTAVYYCGKSNIWGPGTLVTVSS VL: DIQMTQSPSSLSASVGDRVTITCRSSQSVRTNKLAWFQQKPGQPPKRLIYSASTLDFGVPSRFSGSGSGTEFTLTISSLQPEDFATYYCLGYFDCSIADCVAFGGGTKVEIK	0.00303 s⁻¹ and 0.00239 s⁻¹	4 min and 5 min
VH14 with VL01: anti-human tau(pS422) antibody; VH SEQ ID NO: 50, VL SEQ ID NO: 32 (antibody, V domains shown, humanized sequence) VH: QQLVESGGGLVQPGGSLRLSCAASGFSLSSNAINWVRQAPGKGLEWVGYIAVSGNTYYASWAKGRFTISRDNSKNTLYLQMNSLRAEDTAVYYCGKSNIWGPGTLVTVSS VL: DIQMTQSTSTLSASVGDRVTITCQSSQSVRTNKLAWFQQKPGKAPKRLIYSASTLDFGVPSRFSGSGSGTEFTLTISSLQPDDFATYYCLGYFDCSIADCVAFGGGTKVEIK	0.00382 s⁻¹	3 min
VH14 with VL39: anti-human tau(pS422) antibody; VH SEQ ID NO: 50, VL SEQ ID NO: 42 (antibody, V domains shown, humanized sequence) VH: QQLVESGGGLVQPGGSLRLSCAASGFSLSSNAINWVRQAPGKGLEWVGYIAVSGNTYYASWAKGRFTISRDNSKNTLYLQMNSLRAEDTAVYYCGKSNIWGPGTLVTVSS VL: DIQMTQSPSSLSASVGDRVTITCRSSQSVRTNRLAWFQQKPGQPPKRLIYSASTLDFGVPSRFSGSGSGTEFTLTISSLQPEDFATYYCLGYFDPSIADPVAFGGGTKVEIK	0.00522 s⁻¹	2 min
VH14 with VL00: anti-human tau(pS422) antibody; VH SEQ ID NO: 50, VL SEQ ID NO: 07 (antibody, listed as Oryctolagus cuniculus, V domains shown, humanized sequence) VH: QQLVESGGGLVQPGGSLRLSCAASGFSLSSNAINWVRQAPGKGLEWVGYIAVSGNTYYASWAKGRFTISRDNSKNTLYLQMNSLRAEDTAVYYCGKSNIWGPGTLVTVSS VL: AQVLTQTTSPVSAAVGSTVTISCQSSQSVRTNKLAWFQQKPGQPPKRLIYSASTLDFGVPSRFSASGSGTQFTLTISDVQCDDAATYYCLGYFDCSIADCVAFGGGTEVVVK	0.00104 s⁻¹	11 min
VH14 with VL40: anti-human tau(pS422) antibody; VH SEQ ID NO: 50, VL SEQ ID NO: 43 (antibody, V domains shown, humanized sequence) VH: QQLVESGGGLVQPGGSLRLSCAASGFSLSSNAINWVRQAPGKGLEWVGYIAVSGNTYYASWAKGRFTISRDNSKNTLYLQMNSLRAEDTAVYYCGKSNIWGPGTLVTVSS VL: DIQMTQSPSSLSASVGDRVTITCRSSQSVRTNRLAWFQQKPGQPPKRLIYSASTLDFGVPSRFSGSGSGTEFTLTISSLQPEDFATYYCLGYFDPSADPVAFGGGTKVEIK	0.00301 s⁻¹	4 min

Next, values leading:

kd	t/2 diss	Molecule
0.0102 s⁻¹	1 min	VH14 with VL33: anti-human tau(pS422) antibody; VH SEQ ID NO: 50, VL SEQ ID NO: 40 (antibody, V domains shown, humanized sequence) VH: QQLVESGGGLVQPGGSLRLSCAASGFSLSSNAINWVRQAPGKGLEWVGYIAVSGNTYYASWAKGRFTISRDNSKNTLYLQMNSLRAEDTAVYYCGKSNIWGPGTLVTVSS VL: AIQMTQSPSSLSASVGDRVTITCRSSQSVRTNRLAWFQQKPGQPPKRLIYSASTLDFGVPSRFSGSGSGTEFTLTISSLQPEDFATYYCLGYFDSSIADIVAFGGGTKVEIK
0.00384 s⁻¹	3 min	VH14 with VL28: anti-human tau(pS422) antibody; VH SEQ ID NO: 50, VL SEQ ID NO: 39 (antibody, V domains shown, humanized sequence) VH: QQLVESGGGLVQPGGSLRLSCAASGFSLSSNAINWVRQAPGKGLEWVGYIAVSGNTYYASWAKGRFTISRDNSKNTLYLQMNSLRAEDTAVYYCGKSNIWGPGTLVTVSS VL: AIQMTQSPSTLSASVGDRVTITCRSSQSVRTNRLAWFQQKPGKAPKRLIYSASTLDFGVPSRFSGSGSGTEFTLTISSLQPDDFATYYCLGYFDPSADPVAFGGGTKVEIK
0.0033 s⁻¹	4 min	VH14 with VL22: anti-human tau(pS422) antibody; VH SEQ ID NO: 50, VL SEQ ID NO: 17 (antibody, V domains shown, humanized sequence) VH: QQLVESGGGLVQPGGSLRLSCAASGFSLSSNAINWVRQAPGKGLEWVGYIAVSGNTYYASWAKGRFTISRDNSKNTLYLQMNSLRAEDTAVYYCGKSNIWGPGTLVTVSS VL: AQVMTQSPSSLSASVGDRVTITCRSSQSVRTNRLAWFQQKPGQPPKRLIYSASTLDYGVPSRFSGSGSGTEFTLTISSLQPEDFATYYCLGYFDSSADIVAFGGGTKVEIK
0.011 s⁻¹	1 min	VH14 with VL35: anti-human tau(pS422) antibody; VH SEQ ID NO: 50, VL SEQ ID NO: 41 (antibody, V domains shown, humanized sequence) VH: QQLVESGGGLVQPGGSLRLSCAASGFSLSSNAINWVRQAPGKGLEWVGYIAVSGNTYYASWAKGRFTISRDNSKNTLYLQMNSLRAEDTAVYYCGKSNIWGPGTLVTVSS VL: AIQMTQSTSSLSASVGDRVTITCRSSQSVRTNRLAWFQQKPGQPPKRLIYSASTLDFGVPSRFSGSGSGTEFTLTISSLQPEDFATYYCLGYFDSSIADIVAFGGGTKVEIK
0.00198 s⁻¹	6 min	VH14 with VL19: anti-human tau(pS422) antibody; VH SEQ ID NO: 50, VL SEQ ID NO: 38 (antibody, V domains shown, humanized sequence) VH: QQLVESGGGLVQPGGSLRLSCAASGFSLSSNAINWVRQAPGKGLEWVGYIAVSGNTYYASWAKGRFTISRDNSKNTLYLQMNSLRAEDTAVYYCGKSNIWGPGTLVTVSS VL: AQVMTQSPSSLSASVGDRVTITCRSSQSVRTNKLAWFQQKPGQPPKRLIYSASTLDFGVPSRFSGSGSGTEFTLTISSLQPEDFATYYCLGYFDCSIADCVAFGGGTKVEIK
0.00293 s⁻¹	4 min	VH14 with VL21: anti-human tau(pS422) antibody; VH SEQ ID NO: 50, VL SEQ ID NO: 16 (antibody, V domains shown, humanized sequence) VH: QQLVESGGGLVQPGGSLRLSCAASGFSLSSNAINWVRQAPGKGLEWVGYIAVSGNTYYASWAKGRFTISRDNSKNTLYLQMNSLRAEDTAVYYCGKSNIWGPGTLVTVSS VL: AQVMTQSPSSLSASVGDRVTITCRSSQSVRTNKLAWFQQKPGQPPKRLIYSASTLDFGVPSRFSGSGSGTEFTLTISSLQPEDFATYYCLGYFDSSADIVAFGGGTKVEIK

same assay, conditions: 25 °C; VL17 or VL19 with VH variants

Molecule	kd [s⁻¹]	t/2 diss [min]
VH14 with VL17: anti-human tau(pS422) antibody; VH SEQ ID NO: 50, VL SEQ ID NO: 37 (antibody, V domains shown, humanized sequence) VH: QQLVESGGGLVQPGGSLRLSCAASGFSLSSNAINWVRQAPGKGLEWVGYIAVSGNTYYASWAKGRFTISRDNSKNTLYLQMNSLRAEDTAVYYCGKSNIWGPGTLVTVSS VL: DIQMTQSPSSLSASVGDRVTITCRSSQSVRTNKLAWFQQKPGQPPKRLIYSASTLDFGVPSRFSGSGSGTEFTLTISSLQPEDFATYYCLGYFDCSIADCVAFGGGTKVEIK	0.003	4
VH14 with VL19: anti-human tau(pS422) antibody; VH SEQ ID NO: 50, VL SEQ ID NO: 38 (antibody, V domains shown, humanized sequence) VH: QQLVESGGGLVQPGGSLRLSCAASGFSLSSNAINWVRQAPGKGLEWVGYIAVSGNTYYASWAKGRFTISRDNSKNTLYLQMNSLRAEDTAVYYCGKSNIWGPGTLVTVSS VL: AQVMTQSPSSLSASVGDRVTITCRSSQSVRTNKLAWFQQKPGQPPKRLIYSASTLDFGVPSRFSGSGSGTEFTLTISSLQPEDFATYYCLGYFDCSIADCVAFGGGTKVEIK	0.002	6
